Series [1] has as its system tryptophane-labeled 3LA mutant CTH peptide. Nature of the series: Label-free MicroScale Thermophoresis (MST), 3LA mutant CTH peptide. In kind it is binding, Arabidopsis thaliana. The note with it: 3 nM to 100 µM, 750 nM tryptophane-labeled peptide, PBS pH 7.5, 1 % DMSO, 0.1 % Pluronic, 25 °C, technical duplicates. Here is the method: For MST experiments, peptides corresponding to the consensus helical sequence (RSQRVDTLLHHMLGDEL) and the 3LA mutant (RSQRVDTAAHHMAGDEL) were synthesized (Peptide Speciality Laboratories GmbH, Heidelberg, Germany). To allow for label-free MST binding experiments, additional wild type and mutant peptides were synthesized, which were C-terminally extended by addition of two tryptophanes and a short linker (AAWW).
Labelfree MicroScale Thermophoresis binding experiments were performed in cooperation with the 2bind GmbH (Regensburg, Germany), using 750 nM tryptophane containing target peptide in PBS pH 7.5, 1 % DMSO, 0.1 % Pluronic with varied concentrations of the ligand peptide at 80 % MST power, 100 % LED power in hydrophilic zero background capillaries on a Monolith NT.labelfree device at 25 °C (NanoTemper Technologies, Munich, Germany). Normalized fluorescence data sets (WT peptide and MT peptide) were analyzed in the thermophoresis and temperature jump. For determination of the binding affinity (K D) of the wild type peptide, the recorded fluorescence was normalized to the fraction bound (0 = unbound, 1 = bound), and fitted using the K D fit formula derived from the law of mass action. Technical duplicates were performed for each experimental setup.
(Microscale thermophoresis detects binding through changes in fluorescence in a small temperature gradient.)

For series [2], the system named is Myc-tagged C-terminus of TPC1. Nature of the series: Co-immunoprecipitation of TPC1 C-termini in HEK293T cells. In kind it is binding, Arabidopsis thaliana. Conditions: IP anti-Myc, WB anti-Myc / anti-Flag, 3 independent experiments. The text has this:
For the Co-IP tests the C-terminally tagged GFP-fusions were used as templates to amplify the soluble C-terminus (amino acids 673–733) of TPC1 or TPC1-3LP fused to GFP with PCR. The constructs were subcloned into the pENTR-D-TOPO vector and afterwards brought into the expression vectors with EcoRI and XhoI (New England Biolabs), so that they were N-terminally tagged either with 6x Myc (pCS2+MT) or with the FLAG-tag (pCS2 + Flag).
HEK293T cells were propagated in DMEM GIBCO Glutamax (Life Technologies) supplemented with 10 % fetal calf serum. Cells were seeded in 6–well plates (20–30 % confluency) and transfected the next day using 10 µl Roti-Fect (Carl Roth) per 2 µg total DNA (1 µg DNA per plasmid). Two days after transfection cells were washed with 2 ml PBS buffer (Life Technologies) and harvested for immunoprecipitation in 150 µl cold lysis buffer (10 mM HEPES, 150 mM NaCl, 1 % Nonidet P40, 5 % glycerol, pH 7,4/KOH) supplemented with protease inhibitors and phosphatase inhibitors (Complete mini EDTA free and PhosStop, Roche). Cells were disrupted mechanically with a syringe (cannula diameter 0.55 mm). The lysate was cleared by centrifugation at 13.500 rpm and 4 °C for 10 min. Total protein concentrations were measured with a bicinchoninic acid protein assay (Applichem), typically the total protein amount was 500–600 µg. Loading controls of 50 µg of the lysate were taken accordingly and filled up to 20 µl with lysis buffer before adding 5 µl of 5x sample buffer (250 mM Tris, 5 % SDS, 25 % glycerol, 0.25 % bromophenol blue, 250 mM β–mercaptoethanol, pH 6.8/HCl) and boiling. For immunoprecipitation, 3 µg of mouse anti-c-Myc Epitope antibody 9E10 (sc-40, Santa Cruz) was used per sample. Samples were incubated with the antibody for 45 min at 4 °C with a rotator, then 10 µl of protein G Dynabeads (Life Technologies) equilibrated in the lysis buffer was added to each sample and incubation continued for another 45 min. Samples were washed three times with cold lysis buffer before eluting three times with 20 µl of 100 mM glycine (pH 2.5/HCl). […]

Series [3] concerns the molecule itself. Nature of the series: MST; label-free MST; 750 nM tryptophane-containing target peptide in PBS pH 7.5, 1 % DMSO, 0.1 % Pluronic, unlabeled ligand peptide varied from 3 nM to 100 µM, 25 °C, Monolith NT.labelfree; monomer to dimer.
The test system of series [4] is slow vacuolar (SV) currents in tpc1-2 vacuoles. Nature of the series: Whole-vacuolar patch-clamp of TPC1 variants (SV currents). In kind it is cell-based, Arabidopsis thaliana. Conditions: whole-vacuolar, 1 mM CaCl2, relative to wild type; results section. Here is the method: (§1) Expression of GFP-fusion proteins for electrophysiological measurements or confocal microscopy was performed in A. thaliana tpc1-2 mesophyll protoplasts as described. Briefly, leaves were enzymatically digested to release mesophyll protoplasts, which were then transformed by the polyethylene glycol method. Protoplasts were used for electrophysiological measurements and subcellular localization of GFP fluorescence 2–4 days after transformation.
(§2) Patch-clamp experiments were performed on transformed vacuoles harboring two-pore channels as identified by GFP fluorescence. The pipette (luminal) solution consisted of 100 mM K-gluconate, 2 mM MgCl2, 10 mM EGTA, 10 mM MES, pH 5.5/Tris. The bath (cytosolic) solution contained 50 mM K-gluconate, 1 mM CaCl2, 1 mM MgCl2, 2 mM DTT, 10 mM HEPES, pH 7.5/Tris. Solutions were adjusted to 430 mosmol/kg by adding D-sorbitol. For analysis of the TPC1-S706 mutants two further calcium concentrations of the bath solution were used in which 1 mM CaCl2 was substituted by 0.2 mM or 0.05 mM CaCl2, respectively. Competition assays using the CTH peptide were performed on endogenous TPC1 channels in vacuoles isolated from Col-0 plants. Peptides were dissolved at 10 mM in bath solution supplemented with 1 % DMSO and 0.1 % pluronic, and diluted >600-fold for application in patch-clamp recordings. Currents were recorded either in the whole-vacuolar or cytosolic side-out configuration of the patch-clamp technique, using an EPC10 amplifier and the program PULSE (HEKA electronics, Lambrecht, Germany). Recordings and data analysis were performed as described earlier. Relative open probabilities (P o) were determined from tail currents at −53 mV, following pulses to the different test voltages. Tail currents were normalized to the maximum values at 1 mM Ca^2+, plotted as a function of the applied test voltage, and fitted according to the Boltzmann equation: PO=A/1+exp^zF/RT·(Vo-V) where V o and z are parameters for the voltage at half-maximum open probability and the apparent number of gating charges, respectively, and A describes the maximum conductance that is reached under the experimental conditions.

The subject of series [5] is TPC1 subunits co-expressed in Nicotiana benthamiana leaves. Nature of the series: Bimolecular fluorescence complementation (Split Venus BiFC). In kind it is cell-based. Conditions: N. benthamiana leaves, plate reader and confocal. Here is the method: For BiFC analyses the gateway entry vector pENTR-D-TOPO and the destination vectors pDEST–^GWVYCE and pDEST–^GWVYNE were used for C-terminal fusion of the Venus C- and N-terminus, respectively, and pDEST–VYCE(R)^GW and pDEST–VYNE(R)^GW for N-terminal tagging.
BiFC studies were performed as described using a Split Venus system. The Agrobacterium strain C58C1 [42] harboring the plasmid of interest and the helper strain p19 [43] were grown in LB medium supplemented with 100 µg/ml Kanamycin at 29 °C overnight. The cultures were brought to an optical density (OD600) of 1.0 in infiltration buffer (10 mM MES, 10 mM MgCl2, 100 µM acetosyringone, pH 5.7/KOH) and the combinations to test for co-expression mixed at equal amounts. The p19 helper strain (OD600 = 1.0) was added to these mixtures in a 1:1 ratio. Suspensions were incubated for 2 h before infiltration into the abaxial side of 6-week-old N. benthamiana leaves. Each leaf was infiltrated with several plasmid combinations and a positive control (TPC1/pDEST-^GWVYCE and TPC1/pDEST-^GWVYNE) as well as a negative control (p19 alone) at separated areas to monitor comparability of the transient expression and to define background fluorescence.
For fluorescence quantification leaf disks (Ø 6 mm) were cut out of the infiltrated areas with a cork borer 2.5 day after infiltration. Leaf disks were placed upside-down in a black 96-well plate prefilled with 70 µl H2O per well to minimize dehydration effects. Fluorescence was measured with a plate-reader (Infinite F200, Tecan) with an excitation wavelength of 485 ± 20 nm and an emission wavelength of 525 ± 25 nm.

In series [6] the test system is excised cytosolic side-out vacuolar membrane patches of tpc1-2 cells. Nature of the series: Excised cytosolic side-out patch recordings of TPC1 variants. Conditions: excised patches, tpc1-2 cells. In kind it is cell-based, Arabidopsis thaliana. Here is the method:
as §1, §2

The subject of series [7] is tonoplast. Nature of the series: Confocal localization of GFP-fusions in tpc1-2 mesophyll protoplasts. Type of series: cell-based, Arabidopsis thaliana. Conditions: GFP-fusion in tpc1-2 mesophyll protoplasts. Here is the method: as §1
Fluorescence signals were detected and documented with a TCS SP2 confocal laser scanning microscope and the Leica Confocal Software (Leica Microsystems). A 488 nm Argon laser was used for excitation of GFP and of the auto-fluorescence of chlorophyll. GFP-signals were detected from 500 to 556 nm and chlorophyll signals from 675 to 767 nm. Venus was excited with a […] and detected in the range from 520 to 556 nm, the corresponding chlorophyll signals were detected from 637 to 736 nm. Images were processed with Photoshop (Adobe Systems).

Changes are numbered by the printed parent chain.

As usually defined, the Kd is a measure of binding affinity in units of concentration. A higher Kd goes with lower affinity.

For “RSQRVDTAAHHMAGDEL [3LA mutant, 3LA mutant CTH peptide …]”, the results for the “interaction in MST” value in series [1], in series [1] (listed as 3-LA peptide) and in series [1] (listed as CTH-3LA) were “no interaction was measured”, “no interactions” and “lack of dimer formation”, respectively.

B1: TPC1 C-terminus: soluble C-terminus (residues 673–732) of wild type TPC1, N-terminally 6xMyc- or FLAG-tagged, C-terminal GFP fusion (protein)
chain: EAFFTELDLEEEEKCQGQDSQEKRNRRRSAGSKSRSQRVDTLLHHMLGDELSKPECSTSDT-eGFP
modifications: not fully specified (N-terminus); also: N-terminal 6xMyc or FLAG tag
notes: soluble C-terminus (residues 673–732) of wild type TPC1, N-terminally 6xMyc- or FLAG-tagged, C-terminal GFP fusion
On to B1, for which the “Co-IP of C-termini” value in series [2] is “bound to itself”.

B2: C-terminus of the TPC1-3LP-mutant: soluble C-terminus of TPC1-3LP, N-terminally 6xMyc- or FLAG-tagged, C-terminal GFP fusion (protein)
chain: EAFFTELDLEEEEKCQGQDSQEKRNRRRSAGSKSRSQRVDTPPHHMPGDELSKPECSTSDT-eGFP
modifications: not fully specified (N-terminus); also: N-terminally 6xMyc- or FLAG-tagged
notes: soluble C-terminus of TPC1-3LP, N-terminally 6xMyc- or FLAG-tagged, C-terminal GFP fusion
As for B2, the “Co-IP of C-termini” value in series [2] is listed as “reduced ability to dimerize”; in series [2] (listed as 3LP-Flag-Ct) it was “visibly weaker interaction of the two C-termini”.

B3: Synthetic wild type CTH peptide (consensus C-terminal helix of TPC1, residues 707-723) (peptide)
peptide: RSQRVDTLLHHMLGDEL
notes: The two copies are written as one molecule; also called WT peptide; wild type peptide; source: synthetic peptide (Peptide Speciality Laboratories GmbH); not shown: AAWW (short linker and two tryptophans; only on the target copy held at 750 nM), C-terminal, kept
As to B3, the Kd in series [3] was found to be 3.85 ± 1.1 µM.

B4: TPC1-3LP: substitution of three leucines (L714, 715, and 719) by prolines (protein, UniProt Q94KI8 1-733, looked up, variant L714P L715P L719P)
Two pore calcium channel …: MEDPLIGRDSLGGGGTDRVRRSEAITHGTPFQKAAALVDLAEDGIGLPVEILDQSSFGESARYYFIFTRLDLIWSLNYFALLFLNFFEQPLWCEKNPKPSCKDRDYYYLGELPYLTNAESIIYEVITLAILLVHTFFPISYEGSRIFWTSRLNLVKVACVVILFVDVLVDFLYLSPLAFDFLPFRIAPYVRVIIFILSIRELRDTLVLLSGMLGTYLNILALWMLFLLFASWIAFVMFEDTQQGLTVFTSYGATLYQMFILFTTSNNPDVWIPAYKSSRWSSVFFVLYVLIGVYFVTNLILAVVYDSFKEQLAKQVSGMDQMKRRMLEKAFGLIDSDKNGEIDKNQCIKLFEQLTNYRTLPKISKEEFGLIFDELDDTRDFKINKDEFADLCQAIALRFQKEEVPSLFEHFPQIYHSALSQQLRAFVRSPNFGYAISFILIINFIAVVVETTLDIEESSAQKPWQVAEFVFGWIYVLEMALKIYTYGFENYWREGANRFDFLVTWVIVIGETATFITPDENTFFSNGEWIRYLLLARMLRLIRLLMNVQRYRAFIATFITLIPSLMPYLGTIFCVLCIYCSIGVQVFGGLVNAGNKKLFETELAEDDYLLFNFNDYPNGMVTLFNLLVMGNWQVWMESYKDLTGTWWSITYFVSFYVITILLLLNLVVAFVLEAFFTELDLEEEEKCQGQDSQEKRNRRRSAGSKSRSQRVDTPPHHMPGDELSKPECSTSDT
modifications: C-terminal GFP
notes: substitution of three leucines (L714, 715, and 719) by prolines
With B4, the “residual whole-vacuolar current amplitude (% of wild type amplitude)” value in series [4] is reported as “about 7%”. For the same molecule, the “BiFC signal” value in series [5] is “reduced compared to the wild type”. Further, in series [6], the “macroscopic currents in excised patches” value is reported as “no macroscopic currents were resolved”.

B5: N-terminally tagged TPC1: TPC1 subunits N-terminally tagged with Venus halves (BiFC) or GFP (localization) (protein)
chain: B4 Two pore calcium channel … with P714L, P715L, P719L
modifications: left off: Venus C-terminal half (VC, one copy) or Venus N-terminal half (VN, the other copy), N-terminal, kept
Consider B5, for which the “subcellular localization of GFP-fusion” value in series [7] was “tonoplast localization”. Besides, the “BiFC signal” value in series [5] is reported as “did not result in Venus-fluorescence”.

For the origin of these results see PMC4894940, “The function of the two-pore channel TPC1 depends on dimerization of its carboxy-terminal helix” (Cellular and Molecular Life Sciences: CMLS, 2016).
